Article PMC10636607 (Cell Reports, 2023)

B1: 5J8 Fab (WT) (Fab, V domains shown)
VH: EVQLVESGPGLVKPSDILSLTCAVSGYSISSNYYWGWIRQPPGKGLEWIGSIYHSGSTYYKPSLESRLGISVDTSKNQFSLKLSFVSAADTAVYYCARHVRSGYPDTAYYFDKWGQGTLVTVSS
VL: SYVLTQPPSVSVAPGETARISCGGNNIGTKVLHWYQQTPGQAPVLVVYDDSDRPSGIPERFSGSNSGNTATLTISRVEVGDEADYYCQVWDISTDQAVFGGGTKLTVL
notes: source: ExpiCHO cells, transiently co-transfected, purified (CaptureSelect CH1-XL)
B2: Fab234 (WT) (Fab, V domains shown)
VH: EVQLVESGGGLVKPGGSLRLSCAASGFNFSTHIMNWVRQAPGKGLEWVSSISSSGTYIYYADSMKGRFTISRDNPKNSLYLQMNSLRAEDTAVYYCARARGFIQFHYYMDVWGKGTTVAVSS
VL: SYVLTQPPSVSVAPGKTARITCGGNNIGSKSVHWHQQRPGQAPVLVVYDDKIRPSGIPERFSGSNSGNTATLIISRVEAGDEADYYCQVWHSSSDPVVFGGGTKLTVL

How the values were obtained:
[1] = biological target: biotinylated influenza hemagglutinin (HA) from H1N1 A/California/07/2009 (Influenza A virus A/California/07/2009 …, UniProt C3W5X2, strain, biotinylated); test: BLI; settings: both partners purified
[2] = biological target: T1, biotinylated C-terminal αTSR domain of P. falciparum circumsporozoite protein (P. falciparum, UniProt Q7K740); test: BLI; settings: both partners purified
T1 construct: also called P. falciparum CSP
T1 sequence (Q7K740 310-375): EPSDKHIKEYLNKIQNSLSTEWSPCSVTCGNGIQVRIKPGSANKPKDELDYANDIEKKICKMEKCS

| Binder | binding result [1] | binding result [2] |
| --- | --- | --- |
| B1 | binds | – |
| B2 | – | binds |
